The values below come from patent publication US6500927B2 (priority 1998, dated 2002).

Test [1] deals with MOR-1C splice variant of the mu-opioid receptor-1 (mouse). The test is described as follows: competition with ^3H-DAMGO, CHO cell membranes.
Test [2] concerns the target MOR-1E splice variant of the mu-opioid receptor-1 (mouse) (UniProt P42866). The test is described as follows: competition with ^3H-DAMGO, CHO cell membranes.
Test [3] addresses MOR-1D splice variant of the mu-opioid receptor-1 (mouse) (UniProt P42866). The test is described as follows: competition with ^3H-DAMGO, CHO cell membranes.
The target in test [4] is MOR-1 (mu-opioid receptor-1, full length) (mouse) (UniProt P42866). The test is described as follows: competition with ^3H-DAMGO, CHO cell membranes.
In test [5] the target is MOR-1C splice variant of the mu-opioid receptor-1 (mouse). The test is described as follows: saturation radioligand binding, membranes of stably transfected CHO cells.
The target of test [6] is MOR-1E splice variant of the mu-opioid receptor-1 (mouse) (UniProt P42866). Described as above.
Test [7] concerns the target MOR-1D splice variant of the mu-opioid receptor-1 (mouse) (UniProt P42866). The test is described as above.
Test [8] has as its target MOR-1 (mu-opioid receptor-1, full length) (mouse) (UniProt P42866). The description is as above.
The next test concerns the target T1, MOR-1D (Mus musculus, UniProt P42866).
T1 construct: The cDNA fragments containing the full length MOR-1 or the MOR-1 variants in pCRII-ToPo were subcloned into pcDNA3.1; expressed in transfected cells
The test is classed as binding. To be noted: MOR-1D vs MOR-1, p<0.05.

In a further test the target is T2, MOR-1E (Mus musculus, UniProt P42866).
T2 construct: The cDNA fragments containing the full length MOR-1 or the MOR-1 variants in pCRII-ToPo were subcloned into pcDNA3.1; expressed in transfected cells
Format: binding. To be noted: MOR-1E vs MOR-1.

Turning to DADLE (peptide), the Ki (commonly the equilibrium dissociation constant of an inhibitor or competing ligand from its target) in test [1] is 3.2 nM; in test [2], 2.5 nM; in test [3] it was 1.3 nM; in [4], 2.1 nM.

For “[D-Ala^2, MePhe^4, Gly(ol)^5]enkephalin (DAMGO) (peptide)”, the Kd – broadly, a measure of binding affinity in units of concentration – in test [5] is 0.93 nM; in test [6], 1.2 nM; in test [7], 0.72 nM; in test [8], 1.75 nM. Besides, the Ki in [1] was determined as 0.93 nM; in test [2] it was 1.2 nM; in [3] it was 0.71 nM; in [4], 1.8 nM.

“[D-Ser^2, Leu^5]enkephalin-Thr^6 (DSLET) (peptide)” registered a fold potency against MOR-1 in test [3] of 2 fold.

Take “[D-Ser^2, Leu^5]enkephalin-Thr^6 [DSLET]”: on MOR-1D, the “Potency against binding to MOR-1D relative to MOR-1 (in words)” value is on record as “twice as potent”.

Consider β-endorphin: endogenous opioid peptide, for which the “Affinity of MOR-1E compared with MOR-1” value with MOR-1E is given as “significantly higher affinity”.
